T1: human CD19 on Raji cells (human, UniProt P15391 20-556)
T1 construct: whole, on cells
T1 sequence (looked up): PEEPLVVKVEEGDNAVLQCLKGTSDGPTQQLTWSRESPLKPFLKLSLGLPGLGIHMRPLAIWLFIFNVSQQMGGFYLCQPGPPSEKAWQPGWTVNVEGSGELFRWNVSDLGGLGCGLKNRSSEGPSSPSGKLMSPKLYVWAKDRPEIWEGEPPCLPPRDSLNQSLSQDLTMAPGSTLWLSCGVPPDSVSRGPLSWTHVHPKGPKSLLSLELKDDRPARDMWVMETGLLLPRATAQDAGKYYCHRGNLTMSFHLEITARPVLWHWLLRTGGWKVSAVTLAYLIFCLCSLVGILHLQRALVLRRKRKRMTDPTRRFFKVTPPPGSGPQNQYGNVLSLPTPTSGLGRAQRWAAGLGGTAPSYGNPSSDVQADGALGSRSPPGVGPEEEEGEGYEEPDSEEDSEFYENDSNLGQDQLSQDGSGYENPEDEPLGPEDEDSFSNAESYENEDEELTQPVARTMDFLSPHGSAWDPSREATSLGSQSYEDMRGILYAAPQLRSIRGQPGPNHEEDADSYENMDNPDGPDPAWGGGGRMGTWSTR

T2: Human CD19-his protein (human, UniProt P15391 20-291)
T2 construct: bought protein; also called recombinant human CD19-His; CD19 full-length protein; not shown: His tag
T2 sequence (looked up): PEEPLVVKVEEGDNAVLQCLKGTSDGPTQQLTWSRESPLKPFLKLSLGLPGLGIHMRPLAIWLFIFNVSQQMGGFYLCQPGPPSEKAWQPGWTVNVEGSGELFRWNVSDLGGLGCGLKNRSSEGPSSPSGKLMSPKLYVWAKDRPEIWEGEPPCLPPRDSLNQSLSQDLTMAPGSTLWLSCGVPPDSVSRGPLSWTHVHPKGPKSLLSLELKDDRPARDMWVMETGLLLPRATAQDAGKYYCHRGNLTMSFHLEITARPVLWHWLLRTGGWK

T3: human CD19 on CHO-K1-human CD19 cells (human, UniProt P15391 20-556)
T3 construct: whole, on cells; also called CHO-K1-human CD19-2C8
T3 sequence (looked up): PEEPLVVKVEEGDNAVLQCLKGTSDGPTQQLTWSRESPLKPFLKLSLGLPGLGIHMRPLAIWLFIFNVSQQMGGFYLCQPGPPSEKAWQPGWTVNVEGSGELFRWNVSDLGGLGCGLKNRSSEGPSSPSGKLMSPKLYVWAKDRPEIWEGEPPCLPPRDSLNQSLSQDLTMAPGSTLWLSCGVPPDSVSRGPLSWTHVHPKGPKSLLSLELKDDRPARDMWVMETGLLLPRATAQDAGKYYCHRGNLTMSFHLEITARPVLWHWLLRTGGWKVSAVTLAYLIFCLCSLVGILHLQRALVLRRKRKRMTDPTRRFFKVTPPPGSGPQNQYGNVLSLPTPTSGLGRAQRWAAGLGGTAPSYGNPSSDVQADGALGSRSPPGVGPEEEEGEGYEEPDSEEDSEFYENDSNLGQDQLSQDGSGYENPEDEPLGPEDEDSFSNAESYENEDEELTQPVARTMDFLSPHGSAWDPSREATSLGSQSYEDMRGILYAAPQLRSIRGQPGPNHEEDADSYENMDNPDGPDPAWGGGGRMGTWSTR

T4: human CD19 exon1-3-His tag protein (human, UniProt P15391 20-186, limits assumed)
T4 construct: membrane-distal part of the extracellular region, made in HEK293E cells; not shown: His tag
T4 sequence (looked up): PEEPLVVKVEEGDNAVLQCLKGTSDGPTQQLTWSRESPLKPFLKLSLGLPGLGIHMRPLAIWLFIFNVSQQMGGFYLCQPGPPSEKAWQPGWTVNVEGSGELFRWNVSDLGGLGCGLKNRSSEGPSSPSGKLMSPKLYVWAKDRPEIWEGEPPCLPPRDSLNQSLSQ

B1: F3.121.4-L3H3 (antibody, mouse IgG1, kappa)
heavy: EVQLVQSGAEVKKPGASVKVSCKASGYTFTNYWMHWVRQRPGQGLEWMGEIDPSDNYANYNQEFQGRVTITVDKSASTAYMELSSLRSEDTAVYYCARHDGYFGALDYWGQGTTVTVSSAKTTPPSVYPLAPGSAAQTNSMVTLGCLVKGYFPEPVTVTWNSGSLSSGVHTFPAVLQSDLYTLSSSVTVPSSTWPSETVTCNVAHPASSTKVDKKIVPRDCGCKPCICTVPEVSSVFIFPPKPKDVLTITLTPKVTCVVVDISKDDPEVQFSWFVDDVEVHTAQTQPREEQFNSTFRSVSELPIMHQDWLNGKEFKCRVNSAAFPAPIEKTISKTKGRPKAPQVYTIPPPKEQMAKDKVSLTCMITDFFPEDITVEWQWNGQPAENYKNTQPIMDTDGSYFVYSKLNVQKSNWEAGNTFTCSVLHEGLHNHHTEKSLSHSPGK
light: EIVLTQSPDFQSVTPKEKVTITCSASSSISSNYLHWYQQKPDQSPKFLIYRTSNLASGVPSRFSGSGSGTDFTLTINSLEAEDAATYYCQQASSIPRMFTFGQGTKLEIKRADAAPTVSIFPPSSEQLTSGGASVVCFLNNFYPKDINVKWKIDGSERQNGVLNSWTDQDSKDSTYSMSSTLTLTKDEYERHNSYTCEATHKTSTSPIVKSFNRNEC
notes: humanized antibody of F3.121.4, VL3+VH3, murine IgG1 constant regions
B2: F3.121.4-L3H4 (antibody, mouse IgG1, kappa)
heavy: EVQLQQSGAEVKKPGASVKVSCKASGYTFTNYWMHWVRQRPGQGLEWMGEIDPSDNYANYNQEFQGRVTITVDKSASTAYMELSSLRSEDTAVYYCARHDGYFGALDYWGQGTTVTVSSAKTTPPSVYPLAPGSAAQTNSMVTLGCLVKGYFPEPVTVTWNSGSLSSGVHTFPAVLQSDLYTLSSSVTVPSSTWPSETVTCNVAHPASSTKVDKKIVPRDCGCKPCICTVPEVSSVFIFPPKPKDVLTITLTPKVTCVVVDISKDDPEVQFSWFVDDVEVHTAQTQPREEQFNSTFRSVSELPIMHQDWLNGKEFKCRVNSAAFPAPIEKTISKTKGRPKAPQVYTIPPPKEQMAKDKVSLTCMITDFFPEDITVEWQWNGQPAENYKNTQPIMDTDGSYFVYSKLNVQKSNWEAGNTFTCSVLHEGLHNHHTEKSLSHSPGK
light: EIVLTQSPDFQSVTPKEKVTITCSASSSISSNYLHWYQQKPDQSPKFLIYRTSNLASGVPSRFSGSGSGTDFTLTINSLEAEDAATYYCQQASSIPRMFTFGQGTKLEIKRADAAPTVSIFPPSSEQLTSGGASVVCFLNNFYPKDINVKWKIDGSERQNGVLNSWTDQDSKDSTYSMSSTLTLTKDEYERHNSYTCEATHKTSTSPIVKSFNRNEC
notes: humanized antibody of F3.121.4, VL3+VH4, murine IgG1 constant regions
B3: F3.121.4 (antibody, human IgG1, V domains shown)
VH: QVQLQQPGAELVVPGTSVKLSCKASGYTFTNYWMHWVKQRPGQGLEWIGEIDPSDNYANYNQEFQGKATLTVDKSSSTAYMQLSSLTSDDSAVYYCARHDGYFGALDYWGQGTSVTVSS
VL: EIVLTQSPTTMAASPGEKITITCSASSSISSNYLHWYQQKPGFSPKFLIYRTSNLASGVPARFSGSGSGTSYSLTIGTMEAEDVATYYCQQASSIPRMFTFGSGTKLEIK
notes: human-murine chimeric antibody, human IgG1 constant; also called chimeric antibody F3.121.4

Experiments:
human CD19 on Raji cells = biological target: T1, human CD19 on Raji cells; assay: FACS on Raji cells
Human CD19-his protein [1] = biological target: T2, Human CD19-his protein; assay: ELISA, coated human CD19-His
[2] = biological target: T3, human CD19 on CHO-K1-human CD19 cells; assay: FACS on CHO-K1-human CD19 cells
Human CD19-his protein [3] = biological target: T2, Human CD19-his protein; assay: ELISA on coated human CD19-His
[4] = biological target: T4, human CD19 exon1-3-His tag protein; assay: ELISA, coated human CD19 exon 1-3-His
Human CD19-his protein [5] = biological target: T2, Human CD19-his protein; assay: SPR Biacore, method of example 7.1, human CD19-His
Method in brief: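 Antibody captured on Protein A chip; recombinant human CD19-His injected for 240 s at 30 μl/min, five 1:1 dilutions from 200 nM, dissociation up to 600 s.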

[6] = biological target: T4, human CD19 exon1-3-His tag protein; assay: ELISA on coated human CD19 exon 1-3-His
Human CD19-his protein [7] = biological target: T2, Human CD19-his protein; assay: SPR Biacore, Ab captured on Protein A, CD19-His analyte
Method in brief: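 Antibodies were captured on a Protein A chip at 25 °C in HBS-EP+. Human CD19-His was injected for 240 s at 30 μl/min at 5 concentrations from 200 nM (1:1 dilutions), with dissociation up to 600 s. Data were double-referenced and fitted to a Langmuir 1:1 model for apparent KD.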

Row | Binder | EC50 (human CD19 on Raji cells) [nM] | Maximum mean fluorescence intensity (human CD19 on Raji cells) [MFI] | OD450 at 0.0001 nM (Human CD19-his protein [1]) [OD450] | OD450 at 0.001 nM (Human CD19-his protein [1]) [OD450] | OD450 at 0.01 nM (Human CD19-his protein [1]) [OD450] | OD450 at 0.10 nM (Human CD19-his protein [1]) [OD450] | OD450 at 1.00 nM (Human CD19-his protein [1]) [OD450] | OD450 at 10 nM (Human CD19-his protein [1]) [OD450] | OD450 at 100 nM (Human CD19-his protein [1]) [OD450] | EC50 [2] [nM] | Maximum mean fluorescence intensity [2] [MFI] | EC50 (read off the curve) (Human CD19-his protein [3]) [nM] | OD450 at 0.0001 nM [4] [OD450] | OD450 at 0.001 nM [4] [OD450] | OD450 at 0.01 nM [4] [OD450] | OD450 at 0.10 nM [4] [OD450] | OD450 at 1.00 nM [4] [OD450] | OD450 at 10 nM [4] [OD450] | OD450 at 100 nM [4] [OD450] | Kd (Human CD19-his protein [5]) [nM] | further results
1 | B1 | 0.45 | 32200 | 0.1 | 0.15 | 0.43 | 1.65 | 2.28 | 2.22 | 2.19 | 1.16 | 51800 | ~0.05 | 0.05 | 0.05 | 0.05 | 0.05 | 0.05 | 0.05 | 0.08 | 0.0088 | koff (Human CD19-his protein [5]): 1.04e-06 s⁻¹; kon (Human CD19-his protein [5]): 118000 M⁻¹ s⁻¹
2 | B2 | 0.43 | 32500 | 0.11 | 0.16 | 0.51 | 1.68 | 2.31 | 2.26 | 2.31 | 1.05 | 50500 | ~0.05 | 0.06 | 0.06 | 0.06 | 0.06 | 0.06 | 0.07 | 0.11 | 0.225 | koff (Human CD19-his protein [5]): 2.51e-05 s⁻¹; kon (Human CD19-his protein [5]): 112000 M⁻¹ s⁻¹
3 | B3 | 0.31 | 32900 | 0.05 | 0.06 | 0.11 | 0.5 | 0.88 | 1.04 | 0.82 | 0.3 | 53700 | ~0.1 | 0.05 | 0.05 | 0.05 | 0.05 | 0.05 | 0.05 | 0.07 | 1.15 | binding result [6]: no binding (tested: 100 nM); koff (Human CD19-his protein [5]): 0.000375 s⁻¹; kon (Human CD19-his protein [5]): 327000 M⁻¹ s⁻¹; Kd (Human CD19-his protein [7]): 1.15 nM; koff (Human CD19-his protein [7]): 0.000375 s⁻¹; kon (Human CD19-his protein [7]): 327000 M⁻¹ s⁻¹
